Results published in patent US20160168253A1 (Hoffmann-La Roche, published 2016).

Molecular target: T1, Aβ1-40 fibers (human)
T1 construct: Coated on Maxisorp plates for 3 days at 37 C to produce fibrillar Abeta; also called fibrillar Aβ; fibrillar Abeta
Experiment: ELISA on plate-coated fibrillar Aβ(1-40), detection with anti-human-IgG-HRP
Experimental: Binding of fusion polypeptide to fibrillar Aβ was measured by an ELISA assay. Briefly, […] was coated at 7 μg/mL in PBS onto Maxisorp plates for 3 days at 37° C. to produce fibrillar Abeta, then dried for 3 h at RT. The plate was blocked with 1% Crotein C and 0.1% RSA in PBS (blocking buffer) for 1 h at RT, then washed once with wash buffer. Fusion polypeptides or controls were added at concentrations up to 100 nM in blocking buffer and incubated at 4° C. overnight. After 4 wash steps, constructs were detected by addition of anti-human-IgG-HRP (Jackson Immunoresearch) at 1:10,000 dilution in blocking buffer […], followed by 6 washes and incubation in TMB (Sigma). Absorbance was read out at 450 nm after stopping color development with 1 N HCl (see FIG. 1).

B1: Mab 31 = Gantenerumab (INN) (antibody, human IgG1, V domains shown)
VH: QVELVESGGGLVQPGGSLRLSCAASGFTFSSYAMSWVRQAPGKGLEWVSAINASGTRTYYADSVKGRFTISRDNSKNTLYLQMNSLRAEDTAVYYCARGKGNTHKPYGYVRYFDVWGQGTLVTVSS
VL: DIVLTQSPATLSLSPGERATLSCRASQSVSSSYLAWYQQKPGQAPRLLIYGASSRATGVPARFSGSGSGTDFTLTISSLEPEDFATYYCLQIYNMPITFGQGTKVEIKR
notes: Human IgG1 with kappa light chain; Id; No. 13; also called mAb31(HEK); naked anti-Aβ monoclonal antibody
- binding result: binds
